In the DeepSol protein solubility set:

test: soluble on expression in E. coli; label from the status in PepcDB or PDB records

Sequence | soluble on expression in E. coli
MAHHHHHHMIVELNPANFHKVVKDPSKNVFVMFYAPWCGHCNNMKPMWLELADKYPTAEDVIIARIDASEYRGIAKEFDIRGFPTLKFFSKRDKSGEIEYDGPRELSAFVAYVATNKQ | not soluble
MGSDKIHHHHHHMSEAFLRFDGISVEFPGVKALDEVSFSARAGEVHALMGENGAGKSTLLKVLSGVNRPSSGQLWIDGQAHVFANAREALAHGIAIIYQELTLSPNLSVAENLLLGQLPERRGFIDRRTMKARAREILEELGEGDIDPATKVRELSIGQQQMIEIGRALLRDARIIAFDEPTSSLSVQETRQLKRIVARLRDEGRVVLYVTHRMEEVFEMCDAVTVFRDGRHIRTHETLEGLDHDMLVGEMVGRQIDDVYGFRPRDIGDVLMRIDGLQGRGVNEPVNLEVRRGEVLGLFGLVGAGRSELMRLVCGVEKASRGQVALRGETRVFASPHQAIRAGIAMCPEDRKSQGIFPVASVSDNLNISCRRFFRRWGMFRHAARETDNAKTYIQRLSIKTPSHRTPINTLSGGNQQKVILGRWLAEEIDLFVMDEPTRGIDVGARRDIYALLYDLAEQGKGVIVISSDLAEVSSICDRIGVMRDGVLVDIVPREQATQARLLGLALPA | not soluble
MGSDKIHHHHHHMRMAQVVLENVTKVYENKVVAVKNANLVVEDKEFVVLLGPSGCGKTTTLRMIAGLEEITDGKIYIDGKVVNDVEPKDRDIAMVFQNYALYPHMTVYENMAFGLKLRKYPKDEIDRRVREAAKILGIENLLDRKPRQLSGGQRQRVAVGRAIVRNPKVFLFDEPLSNLDAKLRVQMRSELKKLHHRLQATIIYVTHDQVEAMTMADKIVVMKDGEIQQIGTPHEIYNSPANVFVAGFIGSPPMNFVNARVVRGEGGLWIQASGFKVKVPKEFEDKLANYIDKEIIFGIRPEDIYDKLFALAPSPENTITGVVDVVEPLGSETILHVKVGDDLIVASVNPRTQAKEEQKIDLVLDMTRMHAFDKETEKAII | not soluble
DQGIVIYNAQHENLVKSWVDGFTKDTGIKVTLRNGGDSELGNQLVQEGSASPADVFLTENSPAMVLVDNAKLFAPLDAATLAQVEPQYRPSHGRWIGIAARSTVFVYNPAKLSDAQLPKSLLDLAKPEWKGRWAASPSGADFQAIVSALLELKGEKATLAWLKAMKTNFTAYKGNSTVMKAVNAGQVDSGVIYHYYPFVDGAKTGENSNNIKLYYFKHQDPGAFVSISGGGVLASSKHQQQAQAFIKWITGKQGQEILRTNNAFEYAVGVGAASNPKLVPLKDLDAPKVDAAQLNSKKVVELMTEAGLL | soluble
MGRVFKKKGGAKREAEEEKQEELVMRKKLRKEEEPEPVEDVEEDEDVSDEDDEDIDDEEEDEDEQNIMDFDFEAYPPSEDDRDGIVNMLTQTFLRTDIDLKAMSEGIIAKAPHGVVLTQAYDDEETEEDYMAYGLCTTVPLNDNKDDAPKFIKDLFTYVLNRAKKGAPTEIYKKIEEIQVSGDGKSALFVNERLLNFPTIVVPQIFGSIREDLSGFETKYKTIIYIQKLRIVETDGSEAKVGASSNGSSGVAGKKKGKMGKAEKKRAAAAALANAEIEFDNPEDRVLFEIKEGKEIHFDYPVHMDVEPGSKFHSTEKDGKKWNPFRRLVIMDDKRFDAFLKKGSDGIII | not soluble
MTDCCPGFGSVAKYIAVSVREASFDVRSMAATSTCIFVLEVMGRHAGWIAAAGGLASDERHELALVILFPEQVFDPERFLRAVDEKVRSHGYCSVVVSEGIRGADGRFVAESGSRDVFGHARLGGVAPVIADLIKERLGYKYHWAVADYLQRAARHIALEHHHHHH | not soluble
MTQNHSASLLVELLTEELPPKALARLSDAFAEGIAQRLAARDLIEGELAFERYATPRRLAVVVQNVRAVAPERQVREKVLPVSVALDAQGKPTAPLAKKLAALGHPNLSIADLERAHDGKAEAFFVNYASPGATLAEGLQAALDETLAKLPIPKVMTYQRPDGTDVQFVRPVHRLSALHDDRIVPVCAFGIDAGDTTLGHRFLSDGLVAIQHANAYADTLRDKGRVLAHFAGRKEAIRAQLEANAGGDQVVMPEALLDEVTSLVEWPVVYPCRFEDEFLQVPQECLILTMQTNQKYFALTDAAGKLRSRFLIVSNIETKTPDEIVEGNERVVRPRLADAKFFFEQDKKKPLADRVPLLANVVYHNKLGSQLARIERLETLAGEIAPAIGADATVAIRAARLAKADLLTDMVGEFPELQGTMGTYYARHDGEAEDVAIACSEHYQPRFSGDALPTTPVSTAVALADKLETIVGIWGIGLAPTGEKDPFALRRHALGVLRLLLEKQLPLDLVWLLRTTYERFAAVPDVAESTDAIHAFFVERLRGLLRERGYTAGEVDAVLSLNPTR | not soluble
MFCKRFIALVTMLTLVCSMLLPYSNASAETGSALNIEAGAAILVEANSGKILYQKNADELLSIASMTKMMSEYLVHEAVDKGKFKWDQKIKVSEYAYKVSQDASLSNVALENGGSYTVKELYEAMAIFSANGATIALAEAIAGKEVDFVKMMNDKSKELGLKNYKFVNSTGLTNKDLKGMHPEGTTADEENKMSAKDVATLAQHLIKDYPKVLDTAKIPKKEFRPEKEKFAMSNWNWMLKGLVKEYDGVDGLKTGSTPEAGDCFTGTVERNGMRFISVVIKTSSHTARFDETKKLYDYGFANFEMKQMYKKGSSVKGQETVRVENAKDKDVAVQTKQAISLPVPKGSKEVYKTELKESSKGQEAPIKKGAALGQMVITPKDTNDPGFLTGKSLQVDLVTTSEVEEANWFTRAMRGIGSFFSGIWNSAVDTVKGWF | not soluble
GGGGGGMGSPYEYQPEVKWYHVLWDMRNKQFRQWYLKKKYRDMRIAYKYESHILYQKAGMGFLMAAVFMSIFSSDLAVAVFRWPTEDPNELLKSQVWQKYHNQLNERKEYADKLLQDSNYIHRKNNPGE | soluble
MGSDKIHHHHHHMKLVCAQSDLSTNLSLVNRAVPSRPTHPVLANVLLQADAETNQVSLTAFDLSLGIRTSFNADVWQSGAIALPAKLLVDITSRLPEGEITLDDESATDGTATGEGLIVSLTPKTGKYQLRAMGAEEFPELPLIENTTAIYLTATSLIEGLRGSLFATSGDETKQVLTGVHLTVKQDTLEFAATDGHRLAVVETTNERPLEDNDQQLEVTVPARALRELERMLAHNAASEEPIALYLDQGQVIFAWQNQRLTSRTLEGQYPAYRQLIPRQFERQVTIERRQFLSTLERIAVLADQKNNIVKLTIDSTAQELTLSCEAQEMGSGRESMNAEIAGEDIEIAFNVKYLMEGLKALPSPEIQMHINQNLTPVIFTPLGGLKMTYLAMPVQLRN | not soluble
MAHHHHHHSLIKTEFKGNNIPYEYAAGADVSDSINGNPIKSFPFEVIELPEGTKYLAWSLIDYDAIPVCGFAWIHWSVANVSVSGNSISIKADLSRTKGDYVQGKNSFTSGLLAEDFSEIENHYVGPTPPDQDHQYELTVYALDHSLNLKNGFYLNEFLKEVNQHKIDQTSINLIGRKEG | not soluble
MAHHHHHHMSGRPEEGLYGNVESQSSNVSQGGRRRTRSEFEGDTDHSSATRIRLEGMYRPQWTMSSTVKDILLEGSTLRTDMKLNEFIRSNLDEEWVVERNGNVIMEAFVQEPDAYVQDQELLRRIINLPAYQALEERKILLEATYKLHHEGVYFLRQWGEHEGKDTVSSHARGKLNGVLTGIEIEEKERREAEEREKARREEEARRDAEEEKARREEQINFNLTLSIKDAIFQGRARVYKMKLNRFLKMELDGRGVADTNRRVLLKEFFKDPTRYVRDAGVLNEIQASDAYLMAKRAVREEMDMEEDIRKLQYKHLRTLLGWSIASAEIRASVREITKGFLDAVLEELRKPTTTIAR | not soluble
MGHHHHHHSHMLEILYQDEWLVAVNKPSGWLVHRSWLDRDEKVVVMQTVRDQIGQHVFTAHRLDRPTSGVLLMGLSSEAGRLLAQQFEQHQIQKRYHAIVRGWLMEEAVLDYPLVEELDKIADKFAREDKGPQPAVTHYRGLATVEMPVATGRYPTTRYGLVELEPKTGRKHQLRRHLAHLRHPIIGDSKHGDLRQNRSGAEHFGLQRLMLHASQLSLTHPFTGEPLTIHAGLDDTWMQALSQFGWRGLLPENERVEFSAPSGQDGEISS | soluble
MSLNPNYLDFEQPIADLEAKIQELHTASMGPSINVDTEVRALENKLRLRTAQIFRNLSAWQISQLARHPRRPYTLDYISVVCDEFQELAGDRALADDKAIVGGLARIGHRPVMLIGHQKGRDNKERLMRNFGMPKPEGYRKALRLMKLAERFGLPLLTFIDTMGAWPGIDAEERNQSEAIATNLIEMAELKIPVICTVIGEGGSGGALAIGIGDRTLMLEYSTYSVITPEGCASILWKDAAKASDAAEQLNLTARRLKEFGLIDKVIREPIGGAHRNPQQMANRLKAVLLNELEALDKVPLVTLLNQRHKRLRTYGAYENHEGHHHHHH | not soluble
DVFQNKANVCWAKALVPVLKTAGIDMTTEQWNTVDYFETDKAHSAEIVLNQLCVRFFGLDLDSGLFSAPTVPLSIRNNHWDNSPSPNMYGLNKEVVRQLSRRYPQLPRAVATGRVYDMNTGTLRNYDPRINLVPVNRRLPHALVLHHNEHPQSDFSSFVSKLKGRTVLVVGEKLSVPGKMVDWLSDRPEATFRARLDLGIPGDVPKYDIIFVNVRTPYKYHHYQQCEDHAIKLSMLTKKACLHLNPGGTCVSIGYGYADRASESIIGAIARQFKFSRVCKPKSSLEETEVLFVFIGYDRKARTHNPYKLSSTLTNIYTGS | soluble
MQQLKKIGFNEYEAKSYVSLVKQGPVTAYQVSKDSGVPRARIYEILGNLVEKGIVMKEEINDTTRYSPLPVEIFLQKAQSEWQSTYEGISDSLKKLETSEEKTDNRVITLKDNQTIISYCQALIKKAERRIVISMWDEMYEALKEDLSEVTDKVTIQGITLHVENPIKNLEAHRITPYTETLSTEHWFIVSIDSKEMIYGPSLAERNIAFYTDDPVHIYLLEDYVWHDVLVNRLVRRNQDDLQQWITAERKSFFMGK | not soluble
GKSASGEKEGNENAEEEAAAIEEARREAEERRKEKHRKMEEEREEMRQTIRDKYGLKKKVKEEPEAEADLDEGRVGRKK | soluble
GPGSMLSQYLRKRVSVVTVDGRNLVGVLHAADQLLNIVLTSCVERTGAPYDFDDGAAEEDNGSVVDEGVSTAFSGGDTASGALPPLEEVHLGVMMLRGADVVSIAAIDVYEEAGTNVKDWRGRDMPPATAVARSW | soluble
KRQKIHLGDRSQKCSKCGIIFIRRSTLSRRKTPMCEKCRKDSCQEAALNKDEGNESGKKT | soluble
MEISTLPIYHTKTKMFGYYAYKSFSFLPEWKIDVTRDFDVTIGPKFSANLVFGVNNRNRSDYTQFVIDKDEIIVSASVGEEVDFNYRLRDNLKAYIGLEAQVGIGERIYTKSGLYDTGKKIEGSSENAFKPYTPYIIFNNTHIMYSGKVSAGLKIRDKYNIALYGGYGKGYFGIEFGQTF | not soluble
ANKNKGFEGVAWDPRRQQLLLGEERPPALYTWKSDGSNVLKGDKQSLLSRALDMRNLSSLSIDPRTGHMLALSADSHMLLEVDEQGNQVSFMTLLGGMNGLKD | not soluble
MAGDPMYSLFQEGRKMKNTAFLITKNHYPKDYRLKKSPDSDSAMGVAKRILAEVMIFRRVPETISLCGTGCQKCASPHLPKIISAVNKNEPVTFILPAFPGKSPNPEKVLGHLPDHAERLSLNFLGTLCQRIKNFYTPGIKIILCSDGRVFSDVVGMNESDVTAYQLELDRLIKEMSLADLSTFNLDYFYKDLHFVQMREELMKSYGQSLDFLKQKIRNGAKPSASPDEQEANRMYSGITRFLFEDAMHAGQTKSRTAIQKESRFKAYEVIRRSNAWSALIAERFPKAVRLSIHPQTCGSKKLGIRLIGNESWMTPWHGVAVESNKGYVLLRRSEAEALGAKLICSSDGRHSHYQLMAEVSYELAAALEHHHHHH | soluble
